In series [1] the test system is HeLa Kyoto. As to the kind of experiment: solubility change mitosis vs G1/S (difference of NP-40 vs SDS log2 ratios) (log2 ratio difference); higher = more soluble in mitosis.
In series [2] the test system is HeLa Kyoto. The series can be described thus: thermal stability score vs G1/S (z-score of summed log2 fold changes over temperatures); higher = more thermally stable than in G1/S.
For series [3], the system named is HeLa Kyoto. As to the kind of experiment: melting temperature (median over replicates), in situ; higher = more thermally stable.
Series [4] concerns HeLa Kyoto. As to the kind of experiment: solubility in G1/S (NP-40 vs SDS abundance) (log2 ratio); higher = more soluble. As to conditions: cell cycle stage: G1/S.
The mark [5] stands for this setting: cell cycle stage: early G1 (4.5 h after nocodazole release).
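Throughout, for melting temperature (median over replicates), in situ: HeLa Kyoto cells synchronized by double thymidine or nocodazole block, proteins quantified by TMT10plex mass spectrometry, three independent biological replicates.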
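Throughout, for solubility change mitosis vs G1/S (difference of NP-40 vs SDS log2 ratios): synchronized HeLa Kyoto cells (double thymidine block for G1/S, nocodazole release for mitosis), protein amounts in NP-40 versus SDS lysates quantified by mass spectrometry, three biological replicates.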
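Throughout, for solubility in G1/S (NP-40 vs SDS abundance): HeLa Kyoto cells arrested at G1/S by double thymidine block, proteins quantified by TMT10plex mass spectrometry in mild NP-40 versus SDS extracts, three biological replicates.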
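Throughout, for thermal stability score vs G1/S (z-score of summed log2 fold changes over temperatures): synchronized HeLa Kyoto cells, proteins quantified by TMT10plex mass spectrometry, three biological replicates, mitosis taken 0.5 h after nocodazole release, G1/S directly after double thymidine block.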

Take “MENAHTKTVEEVLGHFGVNESTGLSLEQVKKLKERWGSNELPAEEGKTLLELVIEQFEDLLVRILLLAACISFVLAWFEEGEETITAFVEPFVILLILVANAIVGVWQERNAENAIEALKEYEPEMGKVYRQDRKSVQRIKAKDIVPGDIVEIAVGDKVPADIRLTSIKSTTLRVDQSILTGESVSVIKHTDPVPDPRAVNQDKKNMLFSGTNIAAGKAMGVVVATGVNTEIGKIRDEMVATEQERTPLQQKLDEFGEQLSKVISLICIAVWIINIGHFNDPVHGGSWIRGAIYYFKIAVALAVAAIPEGLPAVITTCLALGTRRMAKKNAIVRSLPSVETLGCTSVICSDKTGTLTTNQMSVCRMFILDRVEGDTCSLNEFTITGSTYAPIGEVHKDDKPVNCHQYDGLVELATICALCNDSALDYNEAKGVYEKVGEATETALTCLVEKMNVFDTELKGLSKIERANACNSVIKQLMKKEFTLEFSRDRKSMSVYCTPNKPSRTSMSKMFVKGAPEGVIDRCTHIRVGSTKVPMTSGVKQKIMSVIREWGSGSDTLRCLALATHDNPLRREEMHLEDSANFIKYETNLTFVGCVGMLDPPRIEVASSVKLCRQAGIRVIMITGDNKGTAVAICRRIGIFGQDEDVTSKAFTGREFDELNPSAQRDACLNARCFARVEPSHKSKIVEFLQSFDEITAMTGDGVNDAPALKKAEIGIAMGSGTAVAKTASEMVLADDNFSTIVAAVEEGRAIYNNMKQFIRYLISSNVGEVVCIFLTAALGFPEALIPVQLLWVNLVTDGLPATALGFNPPDLDIMNKPPRNPKEPLISGWLFFRYLAIGCYVGAATVGAAAWWFIAADGGPRVSFYQLSHFLQCKEDNPDFEGVDCAIFESPYPMTMALSVLVTIEMCNALNSLSENQSLLRMPPWENIWLVGSICLSMSLHFLILYVEPLPLIFQITPLNVTQWLMVLKISLPVILMDETLKFVARNYLEPGKECVQPATKSCSFSACTDGISWPFVLLIMPLVIWVYSTDTNFSDMFWS [ATP2A2]”: the “solubility change mitosis (log2)” value in the series with HeLa Kyoto [1] was -0.116. The thermal stability score was determined as 3.11 in the series on HeLa Kyoto [2] (setting [5]) and 3.97 in the series with HeLa Kyoto [2] (cell cycle stage: mitosis). Also, the melting temperature in the series with HeLa Kyoto [3] (cell cycle stage: G1/S) and with HeLa Kyoto [3] (cell cycle stage: mitosis) was 51.8 °C each time. Also, the “solubility in G1/S (log2)” value in the series with HeLa Kyoto [4] was -0.104.
For “MENKSLESSQTDLKLVAHPRAKSKVWKYFGFDTNAEGCILQWKKIYCRICMAQIAYSGNTSNLSYHLEKNHPEEFCEFVKSNTEQMREAFATAFSKLKPESSQQPGQDALAVKAGHGYDSKKQQELTAAVLGLICEGLYPASIVDEPTFKVLLKTADPRYELPSRKYISTKAIPEKYGAVREVILKELAEATWCGISTDMWRSENQNRAYVTLAAHFLGLGAPNCLSMGSRCLKTFEVPEENTAETITRVLYEVFIEWGISAKVFGATTNYGKDIVKACSLLDVAVHMPCLGHTFNAGIQQAFQLPKLGALLSRCRKLVEYFQQSAVAMYMLYEKQKQQNVAHCMLVSNRVSWWGSTLAMLQRLKEQQFVIAGVLVEDSNNHHLMLEASEWATIEGLVELLQPFKQVAEMLSASRYPTISMVKPLLHMLLNTTLNIKETDSKELSMAKEVIAKELSKTYQETPEIDMFLNVATFLDPRYKRLPFLSAFERQQVENRVVEEAKGLLDKVKDGGYRPAEDKIFPVPEEPPVKKLMRTSTPPPASVINNMLAEIFCQTGGVEDQEEWHAQVVEELSNFKSQKVLGLNEDPLKWWSDRLALFPLLPKVLQKYWCVTATRVAPERLFGSAANVVSAKRNRLAPAHVDEQVFLYENARSGAEAEPEDQDEGEWGLDQEQVFSLGDGVSGGFFGIRDSSFL [ZBED1]”, the “solubility change mitosis (log2)” value with HeLa Kyoto [1] is -0.112. Moreover, the thermal stability score worked out at 0.506 with HeLa Kyoto [2] (setting [5]) and 0.95 with HeLa Kyoto [2] (cell cycle stage: mitosis). The values for the melting temperature with HeLa Kyoto [3] (cell cycle stage: G1/S) and in the series on HeLa Kyoto [3] (cell cycle stage: mitosis) were 49.7 °C and 49.6 °C, respectively. In addition, the “solubility in G1/S (log2)” value in the series on HeLa Kyoto [4] was 0.0447.
For “MENLKHIITLGQVIHKRCEEMKYCKKQCRRLGHRVLGLIKPLEMLQDQGKRSVPSEKLTTAMNRFKAALEEANGEIEKFSNRSNICRFLTASQDKILFKDVNRKLSDVWKELSLLLQVEQRMPVSPISQGASWAQEDQQDADEDRRAFQMLRRDNEKIEASLRRLEINMKEIKETLRQYLPPKCMQEIPQEQIKEIKKEQLSGSPWILLRENEVSTLYKGEYHRAPVAIKVFKKLQAGSIAIVRQTFNKEIKTMKKFESPNILRIFGICIDETVTPPQFSIVMEYCELGTLRELLDREKDLTLGKRMVLVLGAARGLYRLHHSEAPELHGKIRSSNFLVTQGYQVKLAGFELRKTQTSMSLGTTREKTDRVKSTAYLSPQELEDVFYQYDVKSEIYSFGIVLWEIATGDIPFQGCNSEKIRKLVAVKRQQEPLGEDCPSELREIIDECRAHDPSVRPSVDEILKKLSTFSK [MLKL]”, in the series with HeLa Kyoto [1], the “solubility change mitosis (log2)” value was -0.0647. Besides, the thermal stability score with HeLa Kyoto [2] (setting [5]) was -0.232; in the series with HeLa Kyoto [2] (cell cycle stage: mitosis), 0.87. The melting temperature is 49.6 °C in the series with HeLa Kyoto [3] (cell cycle stage: G1/S) and 50 °C in the series with HeLa Kyoto [3] (cell cycle stage: mitosis). Also, the “solubility in G1/S (log2)” value in the series on HeLa Kyoto [4] came to 0.126.
Regarding “MENSTTTISREELEELQEAFNKIDIDNSGYVSDYELQDLFKEASLPLPGYKVREIVEKILSVADSNKDGKISFEEFVSLMQELKSKDISKTFRKIINKREGITAIGGTSTISSEGTQHSYSEEEKVAFVNWINKALENDPDCKHLIPMNPNDDSLFKSLADGILLCKMINLSEPDTIDERAINKKKLTPFTISENLNLALNSASAIGCTVVNIGASDLKEGKPHLVLGLLWQIIKVGLFADIEISRNEALIALLNEGEELEELMKLSPEELLLRWVNYHLTNAGWHTISNFSQDIKDSRAYFHLLNQIAPKGGEDGPAIAIDLSGINETNDLKRAGLMLQEADKLGCKQFVTPADVVSGNPKLNLAFVANLFNTYPCLHKPNNNDIDMNLLEGESKEERTFRNWMNSLGVNPYINHLYSDLADALVIFQLYEMIRVPVNWSHVNKPPYPALGGNMKKIENCNYAVELGKNKAKFSLVGIAGQDLNEGNSTLTLALVWQLMRRYTLNVLSDLGEGEKVNDEIIIKWVNQTLKSANKKTSISSFKDKSISTSLPVLDLIDAIAPNAVRQEMIRRENLSDEDKLNNAKYAISVARKIGARIYALPDDLVEVKPKMVMTVFACLMGKGLNRIK [PLS1]”, the “solubility change mitosis (log2)” value in the series on HeLa Kyoto [1] is -0.0585. Further, the thermal stability score with HeLa Kyoto [2] (setting [5]) was 0.863; in the series with HeLa Kyoto [2] (cell cycle stage: mitosis), 0.264. Moreover, the melting temperature in the series on HeLa Kyoto [3] (cell cycle stage: G1/S) was 52.6 °C; in the series on HeLa Kyoto [3] (cell cycle stage: mitosis), 53.7 °C. The “solubility in G1/S (log2)” value with HeLa Kyoto [4] was found to be 0.301.
On to “MENTENSVDSKSIKNLEPKIIHGSESMDSGISLDNSYKMDYPEMGLCIIINNKNFHKSTGMTSRSGTDVDAANLRETFRNLKYEVRNKNDLTREEIVELMRDVSKEDHSKRSSFVCVLLSHGEEGIIFGTNGPVDLKKITNFFRGDRCRSLTGKPKLFIIQACRGTELDCGIETDSGVDDDMACHKIPVEADFLYAYSTAPGYYSWRNSKDGSWFIQSLCAMLKQYADKLEFMHILTRVNRKVATEFESFSFDATFHAKKQIPCIVSMLTKELYFYH [CASP3]”, for which, in the series on HeLa Kyoto [1], the “solubility change mitosis (log2)” value came to 0.0123. In addition, the values for the thermal stability score in the series with HeLa Kyoto [2] (setting [5]) and with HeLa Kyoto [2] (cell cycle stage: mitosis) were 0.22 and -0.0196, respectively. In addition, the results for the melting temperature in the series with HeLa Kyoto [3] (cell cycle stage: G1/S) and with HeLa Kyoto [3] (cell cycle stage: mitosis) were 55.7 °C and 56.3 °C, respectively. Further, in the series with HeLa Kyoto [4], the “solubility in G1/S (log2)” value was 0.135.
